Experimental findings from the DeepSol protein solubility set are described below.

This data set can be described thus: soluble on expression in E. coli; label from the status in PepcDB or PDB records.
For “TISQRPYRDRVIHLLALKAYKKPELLARLQKDGVNQKDKNSLGAILQQVANLNSKDLSYTLKDYVFKELQRDWPGYSEIDRRSLESVLSRKLN”, the “soluble on expression in E. coli” value was “soluble”.
As for “MANRLRTGIDVLDRKLDGGIPAGSIVVLSAQPASQAELFLYELTATRGTLWLSLDRTAESVIASIEQTPANTGDPTVRHISGEAPLDNAGKLVSALPETSNLIVDPLDVLEAQEPHSRFRAFMNDLQNHIVNTGSLAIVHCLDGRDVPPLRDTTEHFADVVFQLNTTTNGDEVENRLAIPKFRGGRAPTDIIKLNLVEEVSIDTSRDIALEHHHHHH”, the “soluble on expression in E. coli” value was “not soluble”.
As for “MLNIGYPFWPSMRFKPRPFITPVRFKCLFCLDCCRGRHVYLTVSDIKRLVGSGHDPQKFLTFSIEGGNIRFVLSVREWDLGCIFHDPGTGKCTIHPIRPLICRIYPFMVSKRPLGVEGEEPVQYKGRMLWLYYDESCPGINSQEGEVITPEEIAELGVKFEEELSRTTFEDVIKVLLEHHHHHH”, the “soluble on expression in E. coli” value is “soluble”.
As for “MKLLTLNCHSWQEENQIEKIQYLAKVIQEEEYDVIALQEVSQSIQAENVCGNKKKDNFGLLLLEELKALHVKDYNITWDFSHIGYDVYEEGLAIITKHNIIKEDTFFISENEDTTYWKTRKIVSTTIAYNGKDITFYSCHLGWWNDEEESFKGQVDRLMERVDSNKLAFLMGDFNNNARLKGEGYEYMMQKGLYDTYELAIEKDEGTTVQGEIAGWDENKHNLRIDLILCNQSKKVHSSKVIFNGTNRNVISDHFGVEVQLDI”, the “soluble on expression in E. coli” value is listed as “not soluble”.
Next, “MAHHHHHHMATDLDSFSTYIDHLILLLAARFHAPLEVSVEELLPSSMNLSAEAQCPWELVACSVQQALRTPQTAQERLLMRHLDVHHFSASVCRERARYMQWKLQECRRRRGDKQQLVQSPAVPSAARANTSSTVAASATAAGQPCDVACTSLHNDVCSLYKLVLQSLPSTLGGTESDDDEEDAQAPTTSVQSLASASEPSSFERVHEVFMRTPAEQERDELVARARDEFLSQVQALQSVYYEKYHRWMDVPASVLDPPPASSKQPASTDGAAAALESAAPQRGSESERAALLEALGAAAAPPPRHRKQANHASSSGAADWTEKPHTLASMLHQVQLRRPLRPSAVSDDVLESLYRARAETEEAPKNLCVASGLRSCPPAASTSATPSFAGGCADTITAEAVAVAPSSSQPSSSVAAVRKDTVPPASRRGRWQIVEYDDDDDGEG”: “not soluble”; “MSLKLVKPKKFLGQHFLKDLKVAQDIADTVDTFPELPVLEVGPGMGVLTQFLVKKDRLVKVVEVDYESVAYLREAYPSLEDHIIEDDFLKMNLHRLFDGKPFVLTGNYPYNISSQIFFKMLENKDIIPCCTGMIQKEVAERIAAGPGSKTYGILSVLIQAWYKVEYLFTVSEHVFNPPPKVKSAVIRMTRNDTKEGHHHHHH”: “not soluble”.
For “GALVPRGSHMADPSLNNPVVIQATRLDASILPRNVFSKSYLLYVIAQGTDVGAIAGKANEAGQGAYDAQVKNDEQDVELADHEARIKQLRIDVDDHESRITANTKAITALNVRVTTAEGEIASLQTNVSALDGRVTTAENNISALQADYVSKTATTSQSLASPLNVTTSYSVGGKKVVGARQTGWTAATGTANKGVFDADLTFAVSDTYTQSEIQAIANALITERRRTKAMEDALRAHGLID” the value was “soluble”; for “MKRMIVRMTLPLLIVCLAFSSFSASARAASEEKYWDHWIERHAQPLDASNASNKDLRFLKKVLKGKRIVQLGETTHGAGEINATKVRMIKYLHEELGYDVLAFESGFPDTNASYLNMDQLTPKSTMKNSIYAVWHTEDVVELFDYMKEQKEKGDPLILTGFDIQSMKNSFNVAATQWVKAVDPEKAELLSQSENDFSTLVTDSNTFDEFSQKKEKLVKNYQKLIKFTKTHASELKENLPKEPKAYEMFMHSLQLRIDVMETYMLEEMKEKLEEYPENIEDFSFFMRDRMMAEQFQWVADTLYPKKKIIVWGHNYHLRKQNTKMIKDWVQLNGPNMGDYLPERLKKQTYTIGIYAYSGASLDSSDNKTVKPVTSPPPSGSLEALLKAADRPAVFVDFLHTKNKKGTSWMYTPRTALYWGYMEEQMILKEQYDGVIWLEHITPSVIIKLEHHHHHH”, “not soluble”; for “VRAPGVRAADGAGRVVLYLHGGAFVMCGPNSHSRIVNALSGFAESPVLIVDYRLIPKHSLGMALDDCHDAYQWLRARGYRPEQIVLAGDSAGGYLALALAQRLQCDDEKPAAIVAISPLLQLAKGPKQDHPNIGTDAMFPARAFDALAAWVRAAAAKNMVDGRPEDLYEPLDHIESSLPPTLIHVSGSEVLLHDAQLGAGKLAAAGVCAEVRVWPGQAHLFQLATPLVPEATRSLRQIGQFIRDATADSSLSPVHRSRYVAGSPRAASRGAFGQSPI”, “not soluble”.
On to “MKSIVGVYETPQETIAAIEGLLTKGYDSDDISVVTSRRDTDYLESRTGTEVNQAIDAHQDESESFFDKLKDYFTMDDTATHSKALSDLDIKTDEIDKYQEDLDDGKLLVAVDTDADVIAPIDNGNALSGGFSSTNELDYTTKEEKTMPLREEQLKVDKEDVQTGEVEIGKEVKTEKRDMDIPVRHDEIYVERRPVDENKTDAAPVNDSEEIRVPIVEEKLEVTKKPVVTDEVVVGKRTVEENEHISETVKKEEPRLNKEGKVDGLDDDPLNNQMKIIDRQPKNLKSLEHHHHHH”, for which the “soluble on expression in E. coli” value is “soluble”.
Turning to “MRGSHHHHHHGIQMVSIAINGFGRIGRLVLRIALERKNIDVVAINDPFISVDYAAYMFKYDSTHGKYKGEVSHDGSNLIINGKKVAVFQEKDPATLPWGKLGVDIAVDSTGVFKELDSAQKHIDAGAKKVVITAPSKTAPMFVVGVNEDKYNGEKIVSNASCTTNCLAPIAKIINDEFGIEEGLMTTVHSITATQKTVDGPSHKDWRGGRTASGNIIPSSTGAAKAVGKVLPELQGKLTGMAFRVPTTDVSVVDLTVKLVKAATYDEIKAAVKKVSEGKLKDVVGYTEDAVVSSDFLGDTHSTIFDAAAGIQLSPKFVKLVAWYDNEYGYSTRVVDLVEHVA”, the “soluble on expression in E. coli” value is “soluble”.
For “MLIHYIDIAKRNFVIAVSSLSKTKTETNNPKGIAHTIEYLKKHKVALVVTESTGGLEIPAAKAIHRAGIAVIIANPRQTHQFAQSQSLTKTDAKDAKMPAFFAQMKAQKEDWQTMPYHPPTEAEEVLEALVNRRNQSADMRTAEKNRLHQVHETQVGSVKQLIAHFDRLIDESDKQIDDHTHTHFDGKAQVAEQIKGIGSITTATLMAMLPELGRLSHKRIASLVGIAPHPRKSGEAKFKSRCFGGRSAVLKALYMATVAATRFEPLIRDFHQRPLSEGKPYKVAVTACMRKLLETFAKFLSLTTTEIPTQVFGCFRPKYRLILPKHPLNPPRTPDNQASGLPFRRQRAHLACWRLSTGSNTSPSDGFAHSL”, the “soluble on expression in E. coli” value is given as “not soluble”.
As to “MKEKVIVIGGGLAGSEAAWRLANEGHRVILYEMRPKKMTPAHKTGNLAELVCSNTLGGLELTTGAGLLKAEMQKLGSLVIEAAKVARVPAGGALGVDRKIFSEYITEKIESHPNITLIREEVKEIPEDEVVVIATGPLTSDALSEKIKELVGYDTLYFYDAIAPIVEAESVDFSKGFWGSRYGKGGDDYFNCVLTEEEYKKFYEELLKAEKVKPKDFEKAVHFEGCLPIEEMAERGYKTLLFGPMKPVGLVDPRTGKEPFAVVQLRKENKEGTLLSLVGFQTKLTYKEQKRVFRLIPCLRNAVFVRLGSMHRNTFIQSNKVLTHYLNLKKKENIFFAGQITGVEGYVASSATGILAGINAGRLARGEKPLKAPTETMLGALVNYIVTKEGELQPMNPVFGLLPPLEKKVRDKKKRKELMAKRALETMEKWIKENNLVPEGLVKVC”, the “soluble on expression in E. coli” value is recorded as “soluble”.
For “MGSDKIHHHHHHMSSSAPIDYAALADRIHTWGRELGFQQVGITDTDLAAHERYLERWLAAGYHGEMHFMAKHGSKRTRPEELVPGTLRVVSVRMDYLPPEVETTKVLGQPERAYISRYALGRDYHKLIRKRLATLAKRIEDEVGAYGYRAFVDSAPVMERALAQKAGLGWFGKNAMLLNPQAGSLFFLGELYTDLPLPVDAPFDSEHCGKCSRCQTACPTGAIVDDKVIDSRRCISYLTIELAGSIPEEYREAMGNRVYGCDDCQLVCPFTRFTRVSREDDFAPRHDLDRASLVRLFAWSEEEFLARTEGSAIRRIGYERWLRNLAIGLGNAPWSDQVESALRARLAYPSDLVREHVRWGLEQQRRKRERRIASDVDAPAAPERSA” the value was “not soluble”; for “MGSDKIHHHHHHMDYRKLPHGNEKVSTIGIGSGSLKETTSKEIEDIVTYSMEEGVNLIDTVMYDTTAAEPINNALKGHRDDMLMQIHLGVWYPKGTYSRTRVPRNVKKGFEQELKKYSTNYADIGLISYVDRVKDFEKIMSNGIFDYAKKLKQDGTIRYLGISSHSEEICKLFIETGEIDVIMFSINAAYDFKPSWGKLNLKNERMELYQECEKQGVALTVMKAYGGGQLLNEKTSPFNHAMTVPQCIQYALDRPGVVSCISGVSSKADLDEALKYYSTSEKDRDYSFIASLPHRDIMGTCIYCNHCQPCPSGIDIGIVNKYLDLAKAGDELAKDHYLKLSKNANDCTNCGVCEKNCPFHVDIRGRMLKAKNYFDKTNSVKK”, “not soluble”; for “MGSSHHHHHHSSGENLYFQGHMNVLVIGRGGREHAIAWKAAQSPLVGKLYVAPGNPGIADVAELVHIDELDIEALVQFAKQQAIDLTIVGPEAPLASGIVDRFMAEGLRIFGPSQRAALIEGSKAFAKELMKKYGIPTADHAAFTSYEEAKAYIEQKGAPIVIKADGLAAGKGVTVAQTVEEALAAAKAALVDGQFGTAGSQVVIEEYLEGEEFSFMAFVNGEKVYPLAIAQDHKRAYDGDEGPNTGGMGAYSPVPQISDEMMDAALEAILRPAAKALAAEGRPFLGVLYAGLMATANGPKVIEFNARFGDPEAQVVLPRLKTDLVEAVLAVMDGKELELEWTDEAVLGVVLAAKGYPGAYERGAEIRGLDRISPDALLFHAGTKREGGAWYTNGGRVLLLAAKGETLAKAKEKAYEQLAAIDCDGLFYRRDIGRRAIERASAAYTRMKGR”, “soluble”.
Turning to “MSTHEATLQQPLLRAIDLKKHYPVKKGIFSPERLVKALDGVSFNLERGKTLAVVGESGCGKSTLGRLLTMIETPTGGELYYQGQDLLKHDPHAQKLRRQKIQIVFQNPYGSLNPRKKVGQILEEPLLINTSLSKAQRREKALAMMAKVGLKTEHYDRYPHMFSGGQRQRIAIARGLMLDPDVVIADEPVSALDVSVRAQVLNLMMDLQQDMGLSYVFISHDLSVVEHIADEVMVMYLGRCVEKGTKEQIFNNPRHPYTQALLSATPRLNPDDRRERIKLTGELPSPLNPPPGCAFNARCSRRFGPCTQLQPQLKEYDGQLVACFAVDQDENPQKPLS”, the “soluble on expression in E. coli” value is reported as “not soluble”.
For “MGSSHHHHHHSSGRENLYFQGHMKNLLDLSYEELVTEITNLGLERYRADQILDWVFDKKVNNFDEMTNLSKKHRALLKEHFSISFLKLLDKKVSRIDGTTKFLWELEDGNTIESVMLFHPDRITACISTQVGCPVKCIFCATGMSGFVRNLTTGEIVAQILSMEKEEKKKIGNVVYMGMGEPLLNYENTIKSIRILNHKKMGNIGIRRITISTVGIPDRIIQLAEEGLDVKLALSLHAPTNFKRDQLVPLNKKYSIEEILNAVKIYQRKTGNRVTIEYVLIRGINDEISDAKKLAEILRNMKVFVNLIPVNPTVEGLRRPSRERLLTFKRILLENGIEAEIRREKGTDIEAACGQLRLKRIKSRS” the value was “soluble”.
For “MSLRKLYTKELSVTGSAINHHRIFDSSAHFKGALTIKILPENTAMFNPLHESYCLPMDTNLFKINSIDVPIRINSTEEIEYIELEYRDLYTNSVELRSLSKKDFKIIDNPKSFLKKDQSVLKSHSNDFEEGSTIRYLAVTLQDIGFYQIKKIVDSKKLNLKIHQSHLVVPYCPIASITGTGSNDRCIGDSDNVSFEIQGVPPMKLAYSKIVNGQTFSYVDSSLQPEYFESPLQSSKSKQSFTQGELNDLKWGRNQPVNINLDSSITQDGKFAYKIDKITDGLGNVVDFTSLPEELKKREGHHHHHH” the value was “soluble”.
